Measurements reported in patent US20230183661A1, “BICOMPATIBLE PEPTIDEBIOCOMPATIBLE PEPTIDES FOR INHIBITION OF AGGREGATION OF B-AMYLOID PROTEIN” (Catholic University Industry Academic Cooperation Foundation, priority 2017, published 2023).
Entries after “also recorded” stand apart in the source; their conditions may differ.

Experiments:
nerve cells (N2a) [1] = assay: Cytotoxicity by nuclear morphology through IFA; assay type: cell-based, mouse; conditions: overexpressed in N2a, FIG. 5
Method: (§1) Twenty-four hours after the transfection, N2a cells were incubated in a 4% paraformaldehyde fixation solution for 15 minutes. The cells were washed with PBS three times, and incubated in a 50 mM NH4Cl/PBS quenching solution for 10 minutes.
(§2) Subsequently, the cells were washed with PBS three times, and incubated in a 0.1% Triton X-100/PBS solution for 5 minutes. The cells were then treated and incubated with 2% FBS/blocking buffer at room temperature for 1 hour. The cells were then treated and incubated with FLAG antibodies diluted 1/100 at room temperature for 2 hours, washed with PBS three times, and then treated and incubated with a goat anti-mouse Alexa Fluor®-red 594 dye.
(§3) The sample was washed with PBS three times, and mounted on a glass slide using a FluoroGuard Antifade reagent (Bio-Rad Laboratories, Inc.). A fluorescent image was obtained using a confocal laser scanning microscope (Zeiss LSM 510 Meta, Carl Zeiss AG), and processed using Adobe® Photoshop®, and a fluorescence signal intensity was measured using a ZEN 2009 Light Edition software program.
To confirm cytotoxicity of the peptide (NABi) of the present invention, the peptide of the present invention was overexpressed in nerve cells (N2a), and a nuclear morphology was observed through IFA. […]

Aβ [2] = biological target: T1, Aβ (Homo sapiens, UniProt P05067); assay: Co-IP assay of SOD1 truncated peptides co-overexpressed with Aβ in nerve cells (N2a); assay type: binding; design: Aβ, and generally a peptide consisting of 36 to 43 amino acids; expressed in transfected cells; host or cells: N2a (murine neuroblastoma); conditions: for Acting with β-amyloid / Binding strength with β-amyloid: Co-IP; for Acting with β-amyloid: peptide and Aβ overexpressed in N2a; for Binding strength with β-amyloid: relative score without scale; for Binding to Aβ: FIG. 3, Co-IP; for Binding strength to Aβ: FIG. 3
Method: The transfected HEK293T, H4 and N2a cells were lysed in a NETN buffer and incubated on ice for 1 hour. This solution includes 100 mM of NaCl, 1 mM of EDTA, 20 mM of Tris-HCl (pH 8.0), 0.5% (v/v) NP-40 and protease inhibitors. Among the protease inhibitors, aprotinin and leupeptin have a concentration of 2 μg/ml, and PMSF has a concentration of 0.1 mM.
1 mg of a protein extract and 1 μg of a primary antibody were mixed and cultured at 4° C. for 12 hours. The mixture was mixed with Protein G Sepharose 4 Fast Flow (GE Healthcare), and cultured at 4° C. for 1 hour, yielding a binding immune complex through centrifugation. A sample buffer was added to the precipitated Sepharose and boiled, and the buffer includes 44 mM Tris-HCl (pH 6.8), 2% SDS, 144 mM β-mercaptoethanol, 10% (v/v) glycerol, and 0.004% (v/v) bromophenol blue.
The immunoprecipitated sample was subjected to 12% SDS-polyacrylamide gel electrophoresis (SDS-PAGE) to transfer proteins to a membrane, and then immunoblotting with a FLAG antibody, a SOD1 antibody and a GFP antibody.
To identify a β-strand exposed at a protein surface and inhibiting Aβ protein aggregate formation through interactions with Aβ, all types of truncated fragments of SOD1 consisting of eight β-strands (β1 to β8) were systemically designed and constructed (FIG. 2). FIG. 2 schematically illustrates SOD1 and the β1-to-β8 structure of SOD1, and the sequences of Peptides 1 to 6.
To determine a determinant binding to Aβ, various peptides from which a specific β-strand was removed were constructed. Peptide 2 was prepared by removing a β-turn linked to the β2 strand in Peptide 1. Peptides 1 to 6 and Aβ were overexpressed in nerve cells (N2a), and then a Co-IP assay was performed.

Aβ [3] = biological target: T1, Aβ; assay: FRAP assay of Aβ mobility in nerve cells (N2a); assay type: cell-based; design: Aβ, and generally a peptide consisting of 36 to 43 amino acids; expressed in transfected cells; host or cells: N2a (murine neuroblastoma); conditions: FIG. 9
Method: Fluorescence recovery after photobleaching (FRAP) is a technique for detecting the mobility of a fluorescence-tagged molecule in living cells. N2a cells were cultured in a 35 mm cell culture dish at a density of 5×10^4 cells/dish, and after 12 hours, a target plasmid was transfected into the cells.
Thirty six hours after the transfection, whether an aggregate was formed was analyzed by a laser confocal microscope. A specific area (white box part) was photobleached 15 times using 594 nm laser, and then fluorescence recovery in the photobleached part was measured at an interval of 3 seconds.
To confirm the inhibition of Aβ aggregation by the peptide (NABi) of the present invention, the peptide of the present invention and Aβ were overexpressed in nerve cells (N2a), a predetermined region was repeatedly exposed to a high intensity laser beam through a FRAP assay. Afterward, an Aβ protein was removed from the laser beam-exposed region, and then fluorescence recovery according to migration of peripheral Aβ proteins was measured in real time.
For the control, after Aβ was overexpressed in nerve cells (N2a), fluorescence recovery according to migration of peripheral Aβ proteins was measured in real time through a FRAP assay.

nerve cells (N2a) [4] = assay: Cytotoxicity through IB of neural cell death-associated proteins; assay type: cell-based, mouse; conditions: peptide overexpressed in N2a, FIG. 6
Method: (§4) Cells were lysed in an RIPA buffer and incubated at 4° C. for 30 minutes. The RIPA buffer includes 2 μg/mL of a composition including 0.15 M NaCl, 0.5% (v/v) sodium-deoxycholate, 0.1% (v/v) SDS, 0.05 M Tris-HCl (pH 8.0), 1% (v/v) NP-40, aprotinin and leupeptin, 1 mM PMSF and a phosphatase inhibitor.
(§5) The phosphatase inhibitor included 1 mM Na3VO4 and 1 mM NaF. A protein concentration was measured by a Bradford assay (Bio-Rad Laboratories). The sample was separated in a 12% or 15% SDS-polyacrylamide gel.
(§6) The cells were lysed in a lysis buffer (Catalog No. 9803, Cell Signaling Technology), and the sample was separated in a 13% blue gel according to the manufacturer's protocol (MitoSciences Inc.).
(§7) Proteins were transferred to Protran® nitrocellulose membranes (Sigma-Aldrich Co. LLC), and then the membranes were incubated in a 5% non-fat dried milk/TBST solution at room temperature for 1 hour. […]
(§8) The membranes were incubated with a primary antibody at room temperature for 1 hour, and incubated again with a secondary antibody for 1 hour. The antigen-antibody complex was detected using an enhanced chemiluminescence kit (Santa Cruz Biotechnology, Inc.). […]
For the control, normal nerve cells (N2a) were treated with STS to induce apoptotic cell death (apoptosis positive control), and then the expression and activity of a neural cell death-associated protein were evaluated.

Aβ protein aggregate = biological target: T2, Aβ protein aggregate (Homo sapiens, UniProt P05067); assay: Aβ aggregation inhibition in nerve cells through IFA; assay type: cell-based; conditions: peptide and Aβ expressed, FIG. 7; Aβ-only control about 50% cells with aggregates
T2 construct: Aβ, and generally a peptide consisting of 36 to 43 amino acids; expressed in transfected cells; host or cells: N2a (murine neuroblastoma)
Method: as §1, §2, §3
To confirm the inhibition of Aβ aggregation by the peptide (NABi) of the present invention, the peptide of the present invention and Aβ were expressed in nerve cells, and then an Aβ protein aggregate was quantitatively analyzed through IFA. […]

nerve cells (H4 cells) [5] = assay: Neural cell death through nuclear morphology; assay type: cell-based; conditions: peptide and Aβ overexpressed in H4 cells, versus Aβ-only control, FIG. 11
From the text: For the control, Aβ was overexpressed in the nerve cells (H4 cells).

nerve cells (H4 cells) [6] = assay: Neural cell death-associated proteins through IB at different peptide expression levels; assay type: cell-based; conditions: peptide and Aβ expressed in H4 cells, FIG. 13 lanes 6 to 8
Method: as §4, §5, §6, §7, §8
For the control, after Aβ was expressed in nerve cells (H4 cells), the expression and activity of a neural cell death-associated protein were measured through IB.

nerve cells (H4 cells) [7] = assay: Neural cell death through AnnexinV staining at different peptide expression levels; assay type: cell-based; conditions: all expression levels of the peptide, H4 cells with Aβ, FIG. 12
From the text: An expression level of the peptide of the present invention was differentially adjusted.

Aβ [8] = biological target: T1, Aβ; assay: Aβ aggregate formation under aggregate formation conditions, measured through IB; assay type: biochemical; conditions: FIG. 8
Method: 9. Formation of β-Amyloid Aggregate A monomer recombinant Aβ42 (Catalog No. 03-111, Invitrogen™ Co.) peptide was added to 1,1,1,3,3,3-hexafluoro-2-propanol (HFIP, Sigma-Aldrich Co. LLC) and stored in a −80° C. freezer, and the HFIP was evaporated and removed immediately before use. For the Aβ aggregate formation, 20 μM of Aβ peptides were dissolved in a 0.1 M HEPES/TBS buffer or 0.01 M HCl/TBS buffer and incubated at 37° C. for 14 days. The TBS buffer included 50 mM Tris-HCl and 150 mM NaCl.
To confirm the inhibition of Aβ aggregation by the peptide (NABi) of the present invention, the peptide (NABi) of the present invention and Aβ were cultured under i) a 0.1 M HEPES/TBS (pH 7.4) condition or ii) a 0.01 M HCl/TBS condition, and then the degree of Aβ aggregate formation was measured through IB.
Under an Aβ aggregate formation condition, for example, i) a 0.1 M HEPES/TBS (pH 7.4) condition or ii) a 0.01 M HCl/TBS condition, the control was subjected to IB in order to measure a degree of Aβ aggregate formation.

nerve cells (H4 cells) [9] = assay: Neural cell death through PI staining; assay type: cell-based; conditions: peptide and Aβ overexpressed in H4 cells, FIG. 10
From the text: Approximately 40 to 50% of the H4 cells were positive for a neuron marker (neuron-specific enolase; NSE). Since the H4 cells were sensitive to an Aβ aggregate, and neural cell death resulted from the Aβ aggregate, they were used in neural cell death analysis.
For the control, Aβ was overexpressed in nerve cells (H4 cells).

nerve cells (N2a) [10] = assay: Self-aggregate formation of peptide overexpressed in nerve cells (N2a), immunofluorescence; assay type: cell-based, mouse
Method: as §1, §2, §3
To identify whether a self-aggregate of the peptide (NABi) of the present invention was formed, the peptide of the present invention was overexpressed in nerve cells (N2a), and then measured by an immunofluorescence method.

Substance: G93A: SOD1 mutant in which the 93th amino acid glycine was changed to alanine; aggregation and apoptosis comparator [Peptide G93A, reference compound]
- Cells with condensed and fragmented nuclei (nerve cells (N2a) [1]): approximately 50%

Substance: Peptide 3: truncated fragment of SOD1 consisting of β-strands β4 to β6, 75 aa
- Acting with β-amyloid (Aβ [2]): Not acting
- Binding strength with β-amyloid (Aβ [2]): 0
- Binding to Aβ (Aβ [2]): did not bind to Aβ

Substance: Peptide 4: truncated fragment of SOD1, β1-to-β3 sequence, 39 aa (SEQ ID NO: 2) (ATKAVCVLKGDGPVQGIINFEQKESNGPVKVWGSIKGLT; peptide 2)
- Binding strength with β-amyloid (Aβ [2]): 1
- Binding strength to Aβ (Aβ [2]): bound to Aβ at a similar strength

Substance: Peptide 5: Natural Amyloid β Binder and Amyloid β aggregation inhibitor; β1-to-β5 strand sequence of SOD1, 90 aa (SEQ ID NO: 3 or 4)
- Recovery of fluorescence removed by photobleaching (Aβ [3]; within 20 seconds): 50%
- Recovery of fluorescence removed by photobleaching (Aβ [3]; within 90 seconds): 75%
- Nuclear morphology (nerve cells (N2a) [1]; compared with normal N2a control): normal nuclear morphology
- Truncated forms of PARP1, Lamin A/C (nerve cells (N2a) [4]): not detected either
- Active caspase-3, active caspase-8, active caspase-9 and γ-H2AX (nerve cells (N2a) [4]; STS as apoptosis positive control): not detected
- Nerve cells in which no Aβ protein aggregate was observed (Aβ protein aggregate): ≥ 80%
- Morphological changes in nuclei (chromosomal condensation and fragmentation) (nerve cells (H4 cells) [5]): less morphological changes in nuclei
- Detection of truncated caspase-3, truncated PARP and truncated Lamin A/C (nerve cells (H4 cells) [6]): greatly reduced
- Neural cell death by AnnexinV staining (nerve cells (H4 cells) [7]): neural cell death was inhibited
- Binding strength with β-amyloid (Aβ [2]): 1
- Binding strength to Aβ (Aβ [2]): bound to Aβ at a similar strength; also recorded: strongly bound to Aβ
- Binding to Aβ (Aβ [2]): bound to Aβ
- Reduction of Aβ aggregates compared to the control (Aβ [8]; i) 0.1 M HEPES/TBS (pH 7.4)): 1/10
- Reduction of Aβ aggregates compared to the control (Aβ [8]; ii) 0.01 M HCl/TBS): ⅓
- Reduction of the number of PI-stained apoptotic cells compared to the control (nerve cells (H4 cells) [9]): approximately ⅓
- Self-aggregate formation (nerve cells (N2a) [10]): did not form a self-aggregate

Substance: Peptide 6: truncated fragment of SOD1 consisting of β-strands β5 to β8, 74 aa
- Acting with β-amyloid (Aβ [2]): Not acting
- Binding strength with β-amyloid (Aβ [2]): 0
- Binding to Aβ (Aβ [2]): did not bind to Aβ
